From patent CN109897111A (HANGZHOU HANSI BIOLOGICAL MEDICINE CO LTD, dated 2019) come the findings set out here.

In one experiment the target is hPD-1-his抗原 (human, UniProt Q15116 25-167, limits assumed). Briefly: ELISA, hPD-1-his coated 0.25 μg/ml. (ELISA stands for enzyme-linked immunosorbent assay.)
Experiment [1] deals with T1, hPD-1-hIgGFc抗原 (human, UniProt Q15116 25-167, limits assumed). Briefly: competition ELISA, hPD-1-hIgGFc coated, competitor PDL2-his tag 0.6 μg/ml.
The target of experiment [2] is T1, hPD-1-hIgGFc抗原. The experiment is described as follows: competition ELISA, hPD-1-hIgGFc coated, competitor PDL1-mIgG2aFc 0.6 μg/ml.

T1 sequence (Q15116 25-167 limits assumed): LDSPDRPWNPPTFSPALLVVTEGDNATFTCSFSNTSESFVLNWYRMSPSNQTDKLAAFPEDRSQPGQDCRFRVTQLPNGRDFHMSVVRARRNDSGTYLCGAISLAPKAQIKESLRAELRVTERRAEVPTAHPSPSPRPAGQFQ
Chain of hPD-1-his抗原 (Q15116 25-167 limits assumed): as above

B1: 人源化抗体H8 (抗PD-1的IgG类抗体) (antibody, V domains shown)
VH: EVQLVQSGGGLVQPGGSLKLSCAASGFTFSSYGMSWVRQAPGKGLDWVATISGGGRDTYYPDSVKGRFTISRDNSKNNLYLQMNSLRAEDTALYYCARQKGEAWFAYWGQGTLVTVSA
VL: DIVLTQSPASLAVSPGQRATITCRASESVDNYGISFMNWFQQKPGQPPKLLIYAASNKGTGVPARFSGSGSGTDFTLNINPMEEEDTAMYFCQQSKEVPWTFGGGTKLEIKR
notes: HX009-5 is H8 with linker-SIRPA added to the C-terminus of the heavy chain, and both share the light chain; also called HX008
As usually defined, the EC50 is the concentration needed to bring the measured effect to its halfway point. A low value points to greater potency. One may read the IC50 as the midpoint of a concentration-inhibition curve. Regarding B1, the half-maximal effective concentration (EC50) with hPD-1-his抗原 came to 0.05 nM. In addition, the IC50 with hPD-1-hIgGFc抗原 [1] amounted to 2.7 nM; with hPD-1-hIgGFc抗原 [2], 1 nM.
